# Measurements from IntAct's records for PubMed 16938849.
# B1: Mitogen-activated protein kinase kinase kinase kinase 4 (Mus musculus), P97820 (parent)
# chain: MANDSPAKSLVDIDLSSLRDPAGIFELVEVVGNGTYGQVYKGRHVKTVTAAIKVMDVTEDEEEEITLEINMLKKYSHHRNIATYYGAFIKKSPPGHDDQLWLVMEFCGAGSITDLVKNTKGNTLKEDWIAYISREILRGLAHLHIHHVIHRDIKGQNVLLTENAEVKLVDFGVSAQLDRTVGRRNTFIGTPYWMAPEVIACDENPDATYDYRSDLWSCGITAIEMAEGGPPLCDMHPMRALFLIPRNPPPRLKSKKWSKKFFSFIEGCLVKNYMQRPSTEQLLKHPFIRDQPNERQVRIQLKDHIDRTRKKRGEKDETEYEYSGSEEEEEEVPEQEGEPSSIVNVPGESTLRRDFLRLQQENKERSEALRRQQLLQEQQLREQEEYKRQLLAERQKRIEQQKEQRRRLEEQQRREREARRQQEREQRRREQEEKRRLEELERRRKEEEERRRAEEEKRRVEREQEYIRRQLEEEQRHLEILQQQLLQEQAMLLHDHRRPHAQQQPPPPQQQDRSKPSFHAPEPKPHYDPADRAREVQWSHLASLKNNVSPVSRSHSFSDPSPKFAHHHLRSQDPCPPSRSEGLSQSSDSKSEVPEPTQKAWSRSDSDEVPPRVPVRTTSRSPVLSRRDSPLQGGGQQNSQAGQRNSTSSIEPRLLWERVEKLVPRPGSGSSSGSSNSGSQPGSHPGSQSGSGERFRVRSSSKSEGSPSPRQESAAKKPDDKKEVFRSLKPAGEVDLTALAKELRAVEDVRPPHKVTDYSSSSEESGTTDEEEEDVEQEGADDSTSGPEDTRAASSPNLSNGETESVKTMIVHDDVESEPAMTPSKEGTLIVRQTQSASSTLQKHKSSSSFTPFIDPRLLQISPSSGTTVTSVVGFSCDGLRPEAIRQDPTRKGSVVNVNPTNTRPQSDTPEIRKYKKRFNSEILCAALWGVNLLVGTESGLMLLDRSGQGKVYPLISRRRFQQMDVLEGLNVLVTISGKKDKLRVYYLSWLRNKILHNDPEVEKKQGWTTVGDLEGCVHYKVVKYERIKFLVIALKSSVEVYAWAPKPYHKFMAFKSFGELLHKPLLVDLTVEEGQRLKVIYGSCAGFHAVDVDSGSVYDIYLPTHIQCSIKPHAIIILPNTDGMELLVCYEDEGVYVNTYGRITKDVVLQWGEMPTSVAYIRSNQTMGWGEKAIEIRSVETGHLDGVFMHKRAQRLKFLCGRNDKVFFSSVRSGGSSQVYFMTLGRTSLLSW
# Variants of: B1
# Settings: with Ezr
row,Variant,effect of a mutation on the interaction
1,D152N,increasing interaction strength
